Experimental findings from paper PMC13626733, “Molecular basis of high-torque transmission of the Vibrio polar flagellar motor” (Protein & Cell, 2026) are described below.

Experiment in all cases: cryo-EM structure; polar flagellar motor-hook complex purified as a whole from V. alginolyticus KK148 ΔflgL; local refinements of the LPHT ring, hook, rod, export apparatus and MS ring; LPHT ring particles also obtained by disassembling the complex at reduced salt
Series [1] addresses FlgT (Vibrio alginolyticus (endogenous in strain KK148 ΔflgL)).
For series [2], the target named is FlgH (Vibrio alginolyticus (endogenous in strain KK148 ΔflgL)).
Series [3] concerns the target FlgI (Vibrio alginolyticus (endogenous in strain KK148 ΔflgL)).
Series [4] concerns the molecule itself.

Regarding FlgT (natural protein), in series [1], the stoichiometry N came to 26.

As for FlgH (natural protein), the stoichiometry N in series [2] turned out to be 26.

Take FlgI (natural protein): the stoichiometry N in series [3] was 26.

B1: FliF (natural protein, UniProt Q75N27 1-580, looked up)
chain: MADKSTDLTVTEGGSDGALVASSDVDVESQNPDLEERSASKFDMAVGDLDLLRQVVLVLSISICVALIVMLFFWVKEPEMRPLGAYETEELIPVLDYLDQQKINYKLDGNTISVESSEYNSIKLGMVRSGVNQATEAGDDILLQDMGFGVSQRLEQERLKLSRERQLAQAIEEMKQVRKARVLLALPKHSVFVRHNQEASASVFLTLSTGTNLKQQEVDSIVDMVASAVPGMKTSRITVTDQHGRLLSSGSQDPASAARRKEQELERSQEQALREKIDSVLLPILGYGNYTAQVDIQMDFSAVEQTRKRFDPNTPATRSEYALEDYNNGNMVAGIPGALSNQPPADASIPQDVAQMKDGSVMGQGSVRKESTRNFELDTTISHERKQTGTVARQTVSVAIKDRRQVNPDTGEVTYTPMSESEINAIRQVLIGTVGFDQGRGDLLNVLSVKFAEPEAEQLEEPPIWEHPNFSDWVRWFASALVIIVVVLVLVRPAMKKLLNPTSDDEDEMYGPDGLPIGADGETSLIGSDIESSELFEFGSSIDLPNLHKDEDVLKAVRALVANEPELAAQVVKNWMNDNG
notes: FliF, MS ring subunit of the polar flagellar motor, Vibrio alginolyticus; domains RBM2, RBM3, β-collar; extended peptide loops LA, LB, LC; 34 subunits form the MS ring; 23 RBM2 domains seen in the RBM2 subring; also called MS ring protein; FliF peptide loops LA, LB, LC; source: endogenous, purified within the polar flagellar motor-hook complex from V. alginolyticus KK148 ΔflgL
For B1, the “stoichiometry N” value in series [4] was 34.

In general, stoichiometry N refers to a count of units in the complex or per binding partner.
